T1: OATP3A1 (Homo sapiens, UniProt Q9UIG8)
T1 construct: gene SLCO3A1; full-length transporter overexpressed in HEK-293 cells by recombinant lentivirus
T1 sequence (Q9UIG8 1-710): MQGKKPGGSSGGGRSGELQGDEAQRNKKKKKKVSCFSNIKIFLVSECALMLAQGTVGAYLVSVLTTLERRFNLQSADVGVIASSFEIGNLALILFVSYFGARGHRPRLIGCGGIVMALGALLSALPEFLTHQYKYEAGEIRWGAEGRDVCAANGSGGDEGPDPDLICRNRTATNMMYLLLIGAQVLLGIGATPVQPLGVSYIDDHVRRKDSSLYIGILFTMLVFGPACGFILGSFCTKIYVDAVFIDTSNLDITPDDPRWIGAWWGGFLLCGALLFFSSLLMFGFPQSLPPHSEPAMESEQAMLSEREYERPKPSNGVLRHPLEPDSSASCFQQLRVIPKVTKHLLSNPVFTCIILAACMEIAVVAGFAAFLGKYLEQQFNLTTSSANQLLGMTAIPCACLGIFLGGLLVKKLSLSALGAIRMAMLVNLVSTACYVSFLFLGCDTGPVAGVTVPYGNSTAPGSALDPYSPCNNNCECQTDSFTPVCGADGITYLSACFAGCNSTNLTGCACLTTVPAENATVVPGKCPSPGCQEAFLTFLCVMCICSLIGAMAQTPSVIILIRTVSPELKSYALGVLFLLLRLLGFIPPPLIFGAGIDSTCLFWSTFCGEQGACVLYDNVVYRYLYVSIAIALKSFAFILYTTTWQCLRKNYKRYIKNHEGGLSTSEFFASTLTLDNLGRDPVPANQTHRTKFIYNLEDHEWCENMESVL


What was measured:
OATP3A1 = target: T1, OATP3A1; assay: inhibition of CBRD2-BAT and CBRD4-BAT ([…]) uptake, flow cytometry; type: cell-based; conditions: Uptake buffer pH 5.5, 37 °C, 15 min preincubation with inhibitor
[1] = substrate: CN(C)c1ccc(/C=C/c2cc[n+](CCCCCC(=O)NCc3ccc(-c4nncnn4)cc3)cc2S(=O)(=O)[O-])cc1; assay: flow cytometry uptake into HEK-293-OATP3A1 cells, normalised to mock cells, Michaelis-Menten fit; type: cell-based, Homo sapiens; conditions: Uptake buffer pH 5.5, 37 °C, 15 min, transport
[2] = substrate: CCN(CC)c1ccc2cc(/C=C/c3cc[n+](CCCCCC(=O)NCc4ccc(-c5nncnn5)cc4)cc3S(=O)(=O)[O-])c(=O)oc2c1; assay: as above; type: cell-based, Homo sapiens; conditions: Uptake buffer pH 5.5, 37 °C, 15 min, transport

Row | Molecule | % decrease of transport at 20 μM (OATP3A1) | Km [1] | Km [2]
1 | CCc1oc2ccccc2c1C(=O)c1cc(Br)c(O)c(Br)c1 [benzbromarone] | ~ 90% |  | 
2 | OATP3A1 (Homo sapiens) (protein, full-length transporter overexpressed in HEK-293 cells by recombinant lentivirus) MQGKKPGGSSGGGRSGELQGDEAQRNKKKKKKVSCFSNIKIFLVSECALMLAQGTVGAYLVSVLTTLERRFNLQSADVGVIASSFEIGNLALILFVSYFGARGHRPRLIGCGGIVMALGALLSALPEFLTHQYKYEAGEIRWGAEGRDVCAANGSGGDEGPDPDLICRNRTATNMMYLLLIGAQVLLGIGATPVQPLGVSYIDDHVRRKDSSLYIGILFTMLVFGPACGFILGSFCTKIYVDAVFIDTSNLDITPDDPRWIGAWWGGFLLCGALLFFSSLLMFGFPQSLPPHSEPAMESEQAMLSEREYERPKPSNGVLRHPLEPDSSASCFQQLRVIPKVTKHLLSNPVFTCIILAACMEIAVVAGFAAFLGKYLEQQFNLTTSSANQLLGMTAIPCACLGIFLGGLLVKKLSLSALGAIRMAMLVNLVSTACYVSFLFLGCDTGPVAGVTVPYGNSTAPGSALDPYSPCNNNCECQTDSFTPVCGADGITYLSACFAGCNSTNLTGCACLTTVPAENATVVPGKCPSPGCQEAFLTFLCVMCICSLIGAMAQTPSVIILIRTVSPELKSYALGVLFLLLRLLGFIPPPLIFGAGIDSTCLFWSTFCGEQGACVLYDNVVYRYLYVSIAIALKSFAFILYTTTWQCLRKNYKRYIKNHEGGLSTSEFFASTLTLDNLGRDPVPANQTHRTKFIYNLEDHEWCENMESVL |  | 45 µM | 7.2 µM

Reference: PMC10055104, “Organic Anion Transporting Polypeptide 3A1 (OATP3A1)-Gated Bio-Orthogonal Labeling of Intracellular Proteins” (Molecules, 2023)
